Results: patent US20260242735A1 (UNIVERSIT T BASEL, published 2026)

Tests used:
Assay in all cases: flow cytometry on HEK293-T, alanine scan
human CD33 N99A = human CD33 N99A (human, UniProt P20138 18-364)
Description: (§1) An alanine scan on human CD33 was performed to the determine the residues on CD33 that are involved in binding to the antibodies investigated. […] Briefly, a mutation library of CD33 was created by high-throughput, site-directed mutagenesis. Each residue was individually mutated to alanine, with alanine codons mutated to serine. The mutant library was arrayed in 384-well microplates and transiently transfected into HEK293-T. Following transfection, cells were incubated with the indicated antibodies (IgG or Fab) at concentrations pre-determined using an independent immunofluorescence titration curve on wild type CD33. […] Binding of each antibody to each mutant clone was determined in duplicates. For each point, background fluorescence was subtracted from the raw data, which were then normalized to antibody reactivity with wild type CD33.
(§2) Critical residues for antibody binding (outlined in dark grey) were residues whose mutations led to a binding of the test Abs of less than 20%. Additional secondary residues (outlined in light grey) were identified that led to a binding of the test Abs of between 20 and 40% as compared to the wild type CD33.

human CD33 C101A = human CD33 C101A (human, UniProt P20138 18-364)
Description: as §1, §2

human CD33 V106A = human CD33 V106A (human, UniProt P20138 18-364)
Description: as §1, §2

human CD33 A108S = human CD33 A108S (human, UniProt P20138 18-364)
Description: as §1, §2

human CD33 R109A = human CD33 R109A (human, UniProt P20138 18-364)
Description: as §1, §2

human CD33 F118A = human CD33 F118A (human, UniProt P20138 18-364)
Description: as §1, §2

human CD33 Y127A = human CD33 Y127A (human, UniProt P20138 18-364)
Description: as §1, §2

human CD33 L134A = human CD33 L134A (human, UniProt P20138 18-364)
Description: as §1, §2

human CD33 T152A = human CD33 T152A (human, UniProt P20138 18-364)
Description: as §1, §2

human CD33 S158A = human CD33 S158A (human, UniProt P20138 18-364)
Description: as §1, §2

human CD33 S97A = human CD33 S97A (human, UniProt P20138 18-364)
Chain of human CD33 S97A (P20138 18-364 S97A limits assumed): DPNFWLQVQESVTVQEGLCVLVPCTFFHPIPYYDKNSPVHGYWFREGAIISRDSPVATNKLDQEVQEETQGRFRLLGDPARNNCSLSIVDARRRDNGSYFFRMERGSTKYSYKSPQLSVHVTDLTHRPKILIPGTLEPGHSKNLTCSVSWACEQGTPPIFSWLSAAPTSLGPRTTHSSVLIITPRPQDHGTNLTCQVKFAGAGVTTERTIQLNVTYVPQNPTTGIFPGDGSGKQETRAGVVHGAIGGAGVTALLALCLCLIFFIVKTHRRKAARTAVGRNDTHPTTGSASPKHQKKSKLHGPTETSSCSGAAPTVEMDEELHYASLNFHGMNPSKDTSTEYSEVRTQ
Description: as §1, §2

Chain of human CD33 V106A (P20138 18-364 V106A limits assumed): as the sequence (P20138 18-364 S97A limits assumed) above, with A80S, V89A counted along it
Chain of human CD33 A108S (P20138 18-364 A108S limits assumed): as the sequence (P20138 18-364 S97A limits assumed) above, with A80S, A91S counted along it
Chain of human CD33 N99A (P20138 18-364 N99A limits assumed): as the sequence (P20138 18-364 S97A limits assumed) above, with A80S, N82A counted along it
Chain of human CD33 C101A (P20138 18-364 C101A limits assumed): as the sequence (P20138 18-364 S97A limits assumed) above, with A80S, C84A counted along it
Chain of human CD33 F118A (P20138 18-364 F118A limits assumed): as the sequence (P20138 18-364 S97A limits assumed) above, with A80S, F101A counted along it
Chain of human CD33 L134A (P20138 18-364 L134A limits assumed): as the sequence (P20138 18-364 S97A limits assumed) above, with A80S, L117A counted along it
Chain of human CD33 R109A (P20138 18-364 R109A limits assumed): as the sequence (P20138 18-364 S97A limits assumed) above, with A80S, R92A counted along it
Chain of human CD33 S158A (P20138 18-364 S158A limits assumed): as the sequence (P20138 18-364 S97A limits assumed) above, with A80S, S141A counted along it
Chain of human CD33 Y127A (P20138 18-364 Y127A limits assumed): as the sequence (P20138 18-364 S97A limits assumed) above, with A80S, Y110A counted along it
Chain of human CD33 T152A (P20138 18-364 T152A limits assumed): as the sequence (P20138 18-364 S97A limits assumed) above, with A80S, T135A counted along it

Row | Binder | Mean % WT Binding (human CD33 N99A) [% WT binding] | Mean % WT Binding (human CD33 C101A) [% WT binding] | Mean % WT Binding (human CD33 V106A) [% WT binding] | Mean % WT Binding (human CD33 A108S) [% WT binding] | Mean % WT Binding (human CD33 R109A) [% WT binding] | Mean % WT Binding (human CD33 F118A) [% WT binding] | Mean % WT Binding (human CD33 Y127A) [% WT binding] | Mean % WT Binding (human CD33 L134A) [% WT binding] | Mean % WT Binding (human CD33 T152A) [% WT binding] | Mean % WT Binding (human CD33 S158A) [% WT binding] | Mean % WT Binding (human CD33 S97A) [% WT binding]
1 | Refmab #2 (antibody, V domains shown, The alanine scan used IgG or Fab) VH: QVQLVQSGAEVKKPGSSVKVSCKASGGTFSDYAISWVRQAPGQGLEWMGRIIPILGVADYAQKFQGRVTITADKSTRTAYMELSSLRSEDTAVYYCARNWADAFDIWGQGTMVTVSS VL: DIQLTQSPSSLSASVGDRVTITCRASQGISSVLAWYQQKPGKAPKLLIYDASSLESGVPSRFSGSGSGTDFTLTISSLQPEDFATYYCQQFDSSITFGQGTKLEIK | 56.8 | 0.6 | 112 | 104 | 104 | 0.6 | 146 | 99.6 | 117 | 111 | 132
2 | Refmab #4 (antibody, V domains shown, The alanine scan used IgG or Fab) VH: QVQLVQSGAEVKKPGESVKVSCKASGYTFTNYGMNWVKQAPGQGLEWMGWINTYTGEPTYADKFQGRVTMTTDTSTSTAYMEIRNLGGDDTAVYYCARWSWSDGYYVYFDYWGQGTSVTVSS VL: DIVMTQSPDSLTVSLGERTTINCKSSQSVLDSSTNKNSLAWYQQKPGQPPKLLLSWASTRESGIPDRFSGSGSGTDFTLTIDSPQPEDSATYYCQQSAHFPITFGQGTRLEIK | 43.5 | 1.5 | 110 | 86.5 | 99.5 | 6 | 300 | 82.2 | 110 | 98 | 121
